Test results taken from article PMC9712689 (Communications Biology, 2022).

Legend:
Conditions in all cases: both partners purified
PBP1a [1] = target: T1, PBP1a (P. aeruginosa PAO1, UniProt Q07806 27-822); assay: MST
MltB [2] = target: T2, MltB (P. aeruginosa PAO1, UniProt Q9HVX3 1-367); assay: MST
T2 sequence (looked up): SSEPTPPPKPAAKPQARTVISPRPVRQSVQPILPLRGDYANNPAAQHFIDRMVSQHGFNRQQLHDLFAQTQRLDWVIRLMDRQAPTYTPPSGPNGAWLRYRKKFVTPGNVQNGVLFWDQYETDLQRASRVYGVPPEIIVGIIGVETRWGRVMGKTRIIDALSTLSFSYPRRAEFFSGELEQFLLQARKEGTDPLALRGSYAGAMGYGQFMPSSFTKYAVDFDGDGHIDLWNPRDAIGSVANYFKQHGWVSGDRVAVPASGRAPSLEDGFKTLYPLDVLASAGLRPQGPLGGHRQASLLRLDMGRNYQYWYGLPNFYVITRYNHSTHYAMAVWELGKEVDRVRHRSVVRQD

SltB2 [3] = target: T3, SltB2 (P. aeruginosa PAO1, UniProt Q9I4G6 1-398); assay: MST
T3 sequence (looked up): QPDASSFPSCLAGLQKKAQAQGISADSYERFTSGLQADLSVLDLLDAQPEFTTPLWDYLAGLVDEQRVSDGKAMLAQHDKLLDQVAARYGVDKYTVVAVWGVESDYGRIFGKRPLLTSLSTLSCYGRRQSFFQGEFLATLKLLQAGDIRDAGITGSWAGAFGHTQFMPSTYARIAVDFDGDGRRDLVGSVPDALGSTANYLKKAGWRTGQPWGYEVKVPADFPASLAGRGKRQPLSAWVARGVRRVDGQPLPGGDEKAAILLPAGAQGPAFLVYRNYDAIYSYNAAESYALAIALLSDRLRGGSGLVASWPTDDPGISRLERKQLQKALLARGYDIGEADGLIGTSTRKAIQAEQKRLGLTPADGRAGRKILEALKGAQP

PBP4 [4] = target: T4, PBP4 (P. aeruginosa PAO1, UniProt Q9HZG1 1-476); assay: MST
T4 sequence (looked up): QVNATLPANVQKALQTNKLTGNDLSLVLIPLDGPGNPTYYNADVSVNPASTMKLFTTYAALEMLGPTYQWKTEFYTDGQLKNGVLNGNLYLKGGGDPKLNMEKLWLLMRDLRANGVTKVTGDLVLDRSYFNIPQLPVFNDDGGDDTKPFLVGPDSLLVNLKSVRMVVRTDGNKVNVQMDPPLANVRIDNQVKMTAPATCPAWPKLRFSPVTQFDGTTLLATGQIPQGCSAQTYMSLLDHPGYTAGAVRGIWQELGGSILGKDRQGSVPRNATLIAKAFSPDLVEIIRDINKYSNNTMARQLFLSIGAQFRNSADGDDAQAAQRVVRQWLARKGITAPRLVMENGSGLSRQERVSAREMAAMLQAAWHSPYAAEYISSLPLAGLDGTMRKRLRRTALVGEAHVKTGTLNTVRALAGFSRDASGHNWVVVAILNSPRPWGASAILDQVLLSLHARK

MltF [5] = target: T5, MltF (P. aeruginosa PAO1, UniProt Q9HXN1 33-490); assay: MST
T5 sequence (Q9HXN1 33-490): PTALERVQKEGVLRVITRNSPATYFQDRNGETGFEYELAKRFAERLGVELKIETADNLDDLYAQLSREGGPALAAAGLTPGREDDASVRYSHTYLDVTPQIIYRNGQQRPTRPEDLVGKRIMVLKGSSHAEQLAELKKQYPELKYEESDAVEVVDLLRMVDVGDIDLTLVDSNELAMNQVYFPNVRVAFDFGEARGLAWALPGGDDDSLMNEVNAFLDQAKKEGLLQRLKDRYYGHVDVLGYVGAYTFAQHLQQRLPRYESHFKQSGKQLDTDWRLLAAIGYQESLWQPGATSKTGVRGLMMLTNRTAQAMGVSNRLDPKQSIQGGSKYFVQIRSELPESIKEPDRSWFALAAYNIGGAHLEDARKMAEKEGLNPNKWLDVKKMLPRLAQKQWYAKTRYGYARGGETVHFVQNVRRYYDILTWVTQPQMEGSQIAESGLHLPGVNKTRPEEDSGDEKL

MltA = target: T6, MltA (P. aeruginosa PAO1, UniProt Q9I4B6 1-385); assay: MST
T6 sequence (looked up): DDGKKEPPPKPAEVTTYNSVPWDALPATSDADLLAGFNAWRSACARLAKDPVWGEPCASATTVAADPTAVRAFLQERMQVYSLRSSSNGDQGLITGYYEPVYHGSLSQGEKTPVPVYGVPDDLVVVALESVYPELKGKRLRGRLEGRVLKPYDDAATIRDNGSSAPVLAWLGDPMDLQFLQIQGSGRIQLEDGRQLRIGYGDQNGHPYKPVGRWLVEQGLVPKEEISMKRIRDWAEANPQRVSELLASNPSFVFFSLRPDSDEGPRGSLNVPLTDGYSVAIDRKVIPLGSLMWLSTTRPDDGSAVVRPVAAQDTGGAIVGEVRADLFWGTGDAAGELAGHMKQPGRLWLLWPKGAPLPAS

MltF2 [6] = target: T7, MltF2 (P. aeruginosa PAO1, UniProt Q9HZY1 1-476); assay: MST
T7 sequence (looked up): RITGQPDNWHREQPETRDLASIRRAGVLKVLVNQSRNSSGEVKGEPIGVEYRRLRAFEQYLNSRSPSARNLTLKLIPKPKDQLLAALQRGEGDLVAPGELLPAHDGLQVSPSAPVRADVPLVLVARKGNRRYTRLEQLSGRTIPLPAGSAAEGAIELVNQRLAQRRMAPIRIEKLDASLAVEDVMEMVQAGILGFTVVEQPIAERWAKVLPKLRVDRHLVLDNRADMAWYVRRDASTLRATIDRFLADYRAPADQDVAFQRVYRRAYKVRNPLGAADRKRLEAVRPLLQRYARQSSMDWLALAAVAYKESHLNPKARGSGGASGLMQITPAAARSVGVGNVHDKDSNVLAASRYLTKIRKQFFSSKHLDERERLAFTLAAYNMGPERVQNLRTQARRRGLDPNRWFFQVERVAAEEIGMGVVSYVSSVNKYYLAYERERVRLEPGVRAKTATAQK

MltD [7] = target: T8, MltD (P. aeruginosa PAO1, UniProt Q9I2T2 1-534); assay: MST
T8 sequence (looked up): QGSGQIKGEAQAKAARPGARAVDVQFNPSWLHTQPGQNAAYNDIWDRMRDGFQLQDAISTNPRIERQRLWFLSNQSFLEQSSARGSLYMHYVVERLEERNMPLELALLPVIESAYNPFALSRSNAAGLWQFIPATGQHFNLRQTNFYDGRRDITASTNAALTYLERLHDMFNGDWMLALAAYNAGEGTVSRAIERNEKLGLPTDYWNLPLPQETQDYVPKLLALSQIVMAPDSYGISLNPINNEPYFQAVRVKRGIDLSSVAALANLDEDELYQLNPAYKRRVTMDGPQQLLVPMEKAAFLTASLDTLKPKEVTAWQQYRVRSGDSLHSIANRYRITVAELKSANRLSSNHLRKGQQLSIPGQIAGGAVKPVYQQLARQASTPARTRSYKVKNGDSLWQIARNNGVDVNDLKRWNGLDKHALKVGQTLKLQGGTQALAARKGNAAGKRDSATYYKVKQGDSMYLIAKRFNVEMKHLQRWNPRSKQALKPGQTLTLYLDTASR

TypA [8] = target: T9, TypA (P. aeruginosa PAO1, UniProt Q9HU67 1-605); assay: MST
T9 sequence (looked up): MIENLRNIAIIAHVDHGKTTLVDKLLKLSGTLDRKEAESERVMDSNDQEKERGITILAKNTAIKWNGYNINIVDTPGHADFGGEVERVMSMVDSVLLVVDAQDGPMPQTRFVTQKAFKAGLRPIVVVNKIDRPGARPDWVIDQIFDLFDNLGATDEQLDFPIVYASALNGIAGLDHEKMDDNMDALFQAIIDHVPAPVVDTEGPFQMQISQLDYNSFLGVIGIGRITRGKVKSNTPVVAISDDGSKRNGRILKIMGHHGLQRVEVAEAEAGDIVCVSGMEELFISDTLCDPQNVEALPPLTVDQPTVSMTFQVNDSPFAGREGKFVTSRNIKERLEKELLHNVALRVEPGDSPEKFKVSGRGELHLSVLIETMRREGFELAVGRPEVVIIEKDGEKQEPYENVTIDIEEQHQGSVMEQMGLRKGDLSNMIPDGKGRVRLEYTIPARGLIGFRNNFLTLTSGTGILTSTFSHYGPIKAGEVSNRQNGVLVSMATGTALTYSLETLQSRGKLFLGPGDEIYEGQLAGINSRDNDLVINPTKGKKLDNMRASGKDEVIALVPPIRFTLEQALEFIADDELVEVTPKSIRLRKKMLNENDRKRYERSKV

PBP1a [9] = target: T1, PBP1a; assay: SPR
MltB [10] = target: T2, MltB; assay: SPR
SltB2 [11] = target: T3, SltB2; assay: SPR
PBP4 [12] = target: T4, PBP4; assay: SPR
MltF [13] = target: T5, MltF; assay: SPR
MltF2 [14] = target: T7, MltF2; assay: SPR
MltD [15] = target: T8, MltD; assay: SPR
TypA [16] = target: T9, TypA; assay: SPR

T1 sequence (Q07806 27-822): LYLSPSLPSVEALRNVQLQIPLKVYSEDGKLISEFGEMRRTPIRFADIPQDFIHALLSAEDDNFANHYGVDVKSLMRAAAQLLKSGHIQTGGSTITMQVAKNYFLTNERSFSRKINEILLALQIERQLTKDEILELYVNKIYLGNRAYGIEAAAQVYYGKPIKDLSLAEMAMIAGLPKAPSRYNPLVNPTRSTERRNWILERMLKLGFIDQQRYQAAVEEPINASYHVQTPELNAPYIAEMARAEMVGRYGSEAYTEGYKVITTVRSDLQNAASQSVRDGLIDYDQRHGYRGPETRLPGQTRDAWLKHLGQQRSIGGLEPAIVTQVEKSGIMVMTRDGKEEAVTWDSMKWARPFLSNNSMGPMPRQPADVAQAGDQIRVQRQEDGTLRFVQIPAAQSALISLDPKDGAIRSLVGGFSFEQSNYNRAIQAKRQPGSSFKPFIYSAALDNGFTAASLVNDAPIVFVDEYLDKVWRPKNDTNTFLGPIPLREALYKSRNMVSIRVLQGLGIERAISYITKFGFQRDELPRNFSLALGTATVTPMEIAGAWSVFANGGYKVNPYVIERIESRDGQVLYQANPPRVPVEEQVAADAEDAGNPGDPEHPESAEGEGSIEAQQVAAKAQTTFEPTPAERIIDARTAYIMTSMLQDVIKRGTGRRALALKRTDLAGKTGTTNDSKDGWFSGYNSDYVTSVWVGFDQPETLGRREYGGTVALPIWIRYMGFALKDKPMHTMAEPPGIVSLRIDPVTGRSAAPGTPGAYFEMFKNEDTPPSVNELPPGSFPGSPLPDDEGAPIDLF

B1: RlpA-Δ32, fluorescently labeled (domain or fragment)
chain: PQQPARQAGISGPGDYSRPHRDGAPWWDVDVSRIPDAVPMPHNGSVKANPYTVLGKTYYPMNDARAYRMVGTASWYGTKFHGQATANGETYDLYGMTAAHKTLPLPSYVRVTNLDNGKSVIVRVNDRGPFYSDRVIDLSFAAAKKLGYAETGTARVKVEGIDPVQWWAQRGRPAPMVLAQPKQAVAQAAPAAAQTQAVAMAQPIETYTPPPAQHAAAVLPVQIDSKKNASLPADGLYLQVGAFANPDAAELLKAKLSGVTAAPVFISSVVRNQQILHRVRLGPIGSADEVSRTQDSIRVANLGQPTLVRPD
modifications: amine reactive RED-NHS dye
notes: source: E. coli BL21-star (DE3), purified (Ni-NTA), labelled with RED-NHS dye
Kd (PBP1a [1]): 92 nM | Kd (MltB [2]): 96 nM | Kd (SltB2 [3]): 110 nM | Kd (PBP4 [4]): 550 nM | Kd (MltF [5]): 101 nM | Kd (MltA): 67 nM | Kd (MltF2 [6]): 12 nM | Kd (MltD [7]): 240 nM | Kd (TypA [8]): 1000 nM

B2: RlpA-Δ32 (domain or fragment)
chain: B1 chain
notes: source: E. coli BL21-star (DE3), purified (Ni-NTA)
Kd (PBP1a [9]): 340 nM | koff (PBP1a [9]): 0.00144 s⁻¹ | kon (PBP1a [9]): 4200 M⁻¹ s⁻¹ | Kd (MltB [10]): 620 nM | koff (MltB [10]): 0.00079 s⁻¹ | kon (MltB [10]): 1270 M⁻¹ s⁻¹ | Kd (SltB2 [11]): 1040 nM | koff (SltB2 [11]): 0.0005 s⁻¹ | kon (SltB2 [11]): 480 M⁻¹ s⁻¹ | Kd (PBP4 [12]): 130 nM | koff (PBP4 [12]): 0.00086 s⁻¹ | kon (PBP4 [12]): 6700 M⁻¹ s⁻¹ | kon (MltF [13]): 500 M⁻¹ s⁻¹ | Kd (MltF2 [14]): 6 nM | koff (MltF2 [14]): 0.00028 s⁻¹ | kon (MltF2 [14]): 44000 M⁻¹ s⁻¹ | Kd (MltD [15]): 430 nM | koff (MltD [15]): 0.00116 s⁻¹ | kon (MltD [15]): 2700 M⁻¹ s⁻¹ | Kd (TypA [16]): 2020 nM | koff (TypA [16]): 0.00077 s⁻¹ | kon (TypA [16]): 380 M⁻¹ s⁻¹
